In the supplement of paper PMC9170038:

System: K4 kissing-loop RNA reporter
Assay: apparent KD of K4 kissing-loop reporter; higher = weaker reporter binding
Conditions: Eterna round: R107; input ligand: FMN 200 uM
Procedure: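 RNA-MaP round R107: designed RNA switches with theophylline, tryptophan, arginine or FMN aptamers are transcribed on-chip within common flanks. They are titrated with a labelled K4 kissing-loop RNA reporter in RNA-MaP buffer (100 mM Tris pH 7.5, 80 mM KCl, 4 mM MgCl2), without ligand or with the indicated ligand. Median apparent KD per design.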
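Note: bound reporter read as fluorescence of individual clusters on recovered sequencing chips by microscopy, with normalized cluster intensities fitted with a binding model.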

Sequence | apparent KD of K4 kissing-loop reporter [nM]
CCCAAGGGCCUACCGGUAUUAUUAACGGAUACCAGAGGCGAAAGCCUCCCUUGGCAGCCGGGUGUAGUGAUGUUACUCCGGUAGU | 83.4
CAGCCCAAAUGGCGAGAAGUGUUCCUUAGUCGAGGACCGGUACGGCCGCCACUCGCUCUAAACAUUAGGAGUGAUGUUCCAUUAG | 168
CCAUCGCUAUUCGAUACCAGCUCCUUAGUGAUGUUAAGGUUUUACCCUCUGUAGGAGGGAAGCCCUUGGCAGCGAGUAGUGAUGG [#03 K4 Theophylline B Same State] | 1270
UAUAUAGUGAUGUUAUAUGGGAAGGAGUUACGAGGACCGGUACGGCCGCCACUCGAAACGAGUGAGGAUUUGGGAGAUUGGGUUU [SSTryptA.S] | 333
AUUAAUUUCAGAGGAUAUCGUUAUUUUUUUUAUUUUAUUCAUUUAUGCAGUGAUGUUGCUAUUAUUCGAGAAGGCUGAUUUAUAA [JR_ExcFMNB_Sub005] | 97.9
CGCCGGAAGGCGAGCGCUCCCACUCCGGAAGGAGCGCCCGGAAGGGCAGGUAGGUCGCCGGAGUGAUGUUCCGGUGGAGGGCUCG [#2 Exclusion - Arginine A Attempt #11 (Inspired by Omei)] | 171
GAGAUGCACCAGUCUUAACGUGACUUAUCCCGAGGACCGGUACGGCCGCCACUCGCGUACUACUAGUGAUGUUGGUCAGUAUGAG [theeternabot_sameState_KL_Trp_A_26] | 244
CGCUGGGCGAGUGAUGUUCGCUCACGUGAUACCAGUGCAAUCCAACACCCUUGGCAGCACGCGGGCAGUGAUGUUGUCCUUAGUG [Exclusion Theophylline A GF12] | 160
CUCGAGUGAUGUUCGAUUAUUUAUACAGAUACCAGUGAAUUUUAACACCCUUGGCAGCUGGUUGUAUCAUUGUUUUUUACAAAAG [JR_ExcTheophyA_Sub007] | 113
CAUCUGGACCAAGGAUAUGUGGGCAUAAUAAAAUUACCACCUUAUUUGCAGUAAGUGAUGUUUAACACAGAAGGUGGACAUAGAC [theeternabot_exclusion_KL_FMN_B_10] | 1170
GGACGCCGGUCGGCCGCCACUCACAGCAGUGAUGUUCCUGAGAAUGUAGCGGAGUGAUGUUCCGAGAGGACCGGGACUGCAGUUU [Same State Tryptophan B GF 8] | 799
GUUGAUCAUGGAAGGAGCGCCCAUUGUCGACACGAGUGAUGUUCGUGUCGUUAAUUAUGAGGGCAGGUAGGUCGCCGUGUGCUUU [Soqugebi] | 144
UGACUGGAUGGAAGGAGCGCUAAACUCCUAGUGAUGUUAGGGAUAUGAGGCAAAGCCUUGAAGCAGGUAGGUCGCCAUCUAGUCU [FiskerMod 26 - Jieux - Same State - Arginine B] | 141
AGACUACCACACUGUCAAUAGACAGUGAGCUAGGAUAUGCUGAUAAGCAGAAGGAGUGAUGUUCCCAGGUAGUCAAUAAAAUAAU [FmnAX 13 G29+C66] | 272
GCUAAGUGAUGUUUAUGCCGCCGACCGGAUACCAGCUACUAGGCAAGCCCUUGGCAGCCGCUAUGUGACCGAUCAUUAGUUAUGU [theeternabot_exclusion_KL_Theo_A_6] | 857
CGAGUGAUGUUCGUUUUUUUAUUUUUUUGACAGGAUAUGCGGAAACGCAGAAGGGUCACCUUUGAGUUAAAAGAAUUUAAAUUAU [Ex FMN A 23] | 278

Same assay, conditions: Eterna round: R107; input ligand: arginine 13.2 mM

Sequence | apparent KD of K4 kissing-loop reporter [nM]
AGUACAAUGGCGGCCGCCACUCAACGCAGAUCAAAGAUCUGCGUUCACUCAGUGAUGUUGAGUGAGAGGACCGGGCCUUUGUACA [Omei KL Tryp B SS B v5] | 180
UGUCAUUGGUCGGCCGCCACUGAAAUAAAAGAGUGAUGUUCUUAAAAGACGGACAAAGUCUGUCAUAGGACCGGGACCGAUGACU [TrypBS 24 #SwitchBubble #StaticStem] | 558
UAUUAAUUGUCAGGAUAUCGUAUUCGAGUGAUGUUCGUAUAUCGACGAUAGUCGAUAUUAUCUAUACGAGAAGGGACAUUAUUUA [JR_SSFMNB_Sub006] | 334
UGCUUUAUCAGAAGGAGCGCGUAAGUUAUACUAAUAAUCAGUGAUGUUGAUAUAUGAUCUUUGCAGGUAGGUCGCUGAUAUAGCU [KL-XARG-B4] | 419
UUUAAAUAUAGUGAUGUUAUAUAACAAUGACGAGGACCGGUACGGCCGCCACUCGAGAGAGAUAAUGGUCUUACAAAUGUAAGUC [AstrosSSTryA#8] | 589
GGAAUAACCUGGGAUACCAGUCGGAGGACUAGGGAUCGGAGUGAUGUUCUGGGAUGUUUCGGCCCUUGGCAGCUCUGGUUUUCCG [#2 Exclusion - Theophylline B Attempt #1 (HarryS)] | 286
AUGACGGGUAGUGAUGUUAUCCACGAUGGGAAGGAUAUCAACCGUGUGAGAAGGUCCUUAUCGGUGCGGCACAUGCAGGUACUAC [theeternabot_sameState_KL_FMN_A_41] | 264
UGAUACCAGGCGGCCGCCACUCCUGCAGGUCAAAGACCUGUGAAGCUGGUUCUCCAGUGAUGUUGGAGGACCGGGCCUGGUAUCU [FiskerMod 27 - Jieux - Exclusion - Tryptophan B] | 176
AAGGCACGGCUUCGGCCGUGCCAAAUAGAUACCAGCAUAAUAAUAUGCCCUUGGCAGCUAAAUAGAAAUUCAGUGAUGUUGGAUA [SS Theo A Tesla 2.1] | 444
AGAUGUUUAGCUCAAAGAACGAAAAUGGAAGGAGCGUGCGAAAGCACAGGUAGGUCGCCAGUGAUGUUGGAACCUGAGCAUCAAA [#SwitchBubble 16 #K4Late] | 274
